Holding throughout (assay): SEC; purified mutant TNFα alone on a size exclusion column; single peak; column and buffer not given
Background: In gel filtration, larger molecules generally elute earlier.

The target in test [1] is mTNFα mutant 13, [M41V, V58I, V79I, V96I, V135I, V153I]mTNF-α(1–156) (mouse).
Test [2] has as its target mTNFα mutant 12, [D42E, K44R, F82I, I84V, E88T, Q130R]mTNF-α(1–156) (mouse).
Test [3] deals with mTNFα mutant 16, [L1V, Q6R, N7T, S8P, H20P, V22A, E24G, E27Q, S30N, Q31R, M41V, V58I, V79I, V96I, V135I, L137R, K139D, V153I]mTNF-α(1–156) (mouse).
Test [4] concerns the target mTNFα mutant 6, D71S, Y72H, ins 71_T_72, P101Q, K102R,D103E,L110A]mTNF-α(1–156) (mouse).
The target of test [5] is mTNFα mutant 8, [L137R, K139D]mTNF-α(1–156) (mouse).
Test [6] has as its target mTNFα mutant 11, [Q130R]mTNF-α(1–156) (mouse).
The target in test [7] is mTNFα mutant 15, [H20P, V22A, E24G, E27Q, S30N, Q31R, M41V, V58I, V79I, V96I, V135I, L137R, K139D, V153I]mTNF-α(1–156) (mouse).
For test [8], the target named is mTNFα mutant 19, [L1V, Q6R, N7T, S8P, H20P, V22A, E24G, E27Q, S30N, Q31R, M41V, D42E, K44R, V58I, V79I, V96I, P101Q, K102R, D103E, L110A, V135I, L137R, K139D, V153I]mTNF-α(1–156) (mouse).
The target of test [9] is mTNFα mutant 3, [S30N, Q31R]mTNF-α(1–156) (mouse).
For test [10], the target named is mTNFα mutant 1, [Q6R, N7T, S8P]mTNF-α(1–156) (mouse).
Test [11] has as its target mTNFα mutant 7, [E88T]mTNF-α(1–156) (mouse).
Test [12] concerns the target mTNFα mutant 2, [Q6R, N7T, S8P, A52S, D53E]mTNF-α(1–156) (mouse).
Test [13] concerns the target mTNFα mutant 20, [L1V, Q6R, N7T, S8P, H20P, V22A, E24G, E27Q, S30N, Q31R, M41V, D42E, K44R, V58I, D71S, Y72H, ins 71_T_72, V79I, V96I, P101Q, K102R, D103E, L110A, V135I, L137R, K139D, V153I]mTNF-α(1–156) (mouse).
The target in test [14] is mTNFα mutant 17, [L1V, Q6R, N7T, S8P, H20P, V22A, E24G, E27Q, S30N, Q31R, M41V, D42E, K44R, A52S, D53E, V58I, V79I, F82I, I84V, E88T, V96I, Q130R, V135I, L137R, K139D, V153I]mTNF-α(1–156) (mouse).
Test [15] concerns the target mTNFα mutant 9, [H20P, V22A, E24G, E27Q]mTNF-α(1–156) (mouse).
The target of test [16] is mTNFα mutant 14, [H20P, V22A, E24G, E27Q, M41V, V58I, V79I, V96I, V135I, V153I]mTNF-α(1–156) (mouse).
Test [17] addresses mTNFα mutant 4, [D71S, Y72H, ins 71_T_72]mTNF-α(1–156) (mouse).
Test [18] deals with mTNFα mutant 18, [L1V, Q6R, N7T, S8P, H20P, V22A, E24G, E27Q, S30N, Q31R, M41V, V58I, V79I, V96I, V135I, V153I]mTNF-α(1–156) (mouse).
Test [19] addresses mTNFα mutant 5, [P101Q, K102R, D103E, L110A]mTNF-α(1–156) (mouse).
Test [20] addresses mTNFα mutant 10, [H20P, V22A, E24G, E27Q, S30N, Q31R, L137R, K139D]mTNF-α(1–156) (mouse).

In general, stoichiometry N refers to the number of molecules, sites or subunits per partner or assembly. On to “mTNFα mutant 13, [M41V, V58I, V79I, V96I, V135I, V153I]mTNF-α(1–156) (natural protein)”, for which the stoichiometry N in [1] is 3.
In [2], “mTNFα mutant 12, [D42E, K44R, F82I, I84V, E88T, Q130R]mTNF-α(1–156) (natural protein)” yielded a stoichiometry N of 3.
For the substance “mTNFα mutant 16, [L1V, Q6R, N7T, S8P, H20P, V22A, E24G, E27Q, S30N, Q31R, M41V, V58I, V79I, V96I, V135I, L137R, K139D, V153I]mTNF-α(1–156) (natural protein)”, in test [3], the stoichiometry N came out at 3.
Regarding “mTNFα mutant 6, D71S, Y72H, ins 71_T_72, P101Q, K102R,D103E,L110A]mTNF-α(1–156) (natural protein)”, the stoichiometry N in [4] came to 3.
In test [5], “mTNFα mutant 8, [L137R, K139D]mTNF-α(1–156) (natural protein)” registered a stoichiometry N of 3.
With “mTNFα mutant 11, [Q130R]mTNF-α(1–156) (natural protein)”, the stoichiometry N in test [6] worked out at 3.
Regarding “mTNFα mutant 15, [H20P, V22A, E24G, E27Q, S30N, Q31R, M41V, V58I, V79I, V96I, V135I, L137R, K139D, V153I]mTNF-α(1–156) (natural protein)”, the stoichiometry N in [7] was 3.
Consider “mTNFα mutant 19, [L1V, Q6R, N7T, S8P, H20P, V22A, E24G, E27Q, S30N, Q31R, M41V, D42E, K44R, V58I, V79I, V96I, P101Q, K102R, D103E, L110A, V135I, L137R, K139D, V153I]mTNF-α(1–156) (natural protein)”, for which the stoichiometry N in test [8] amounted to 3.
“mTNFα mutant 3, [S30N, Q31R]mTNF-α(1–156) (natural protein)” had a stoichiometry N in [9] of 3.
As for “mTNFα mutant 1, [Q6R, N7T, S8P]mTNF-α(1–156) (natural protein)”, the stoichiometry N in test [10] is 3.
Regarding “mTNFα mutant 7, [E88T]mTNF-α(1–156) (natural protein)”, the stoichiometry N in [11] was determined as 3.
Turning to “mTNFα mutant 2, [Q6R, N7T, S8P, A52S, D53E]mTNF-α(1–156) (natural protein)”, the stoichiometry N in test [12] was determined as 3.
Regarding “mTNFα mutant 20, [L1V, Q6R, N7T, S8P, H20P, V22A, E24G, E27Q, S30N, Q31R, M41V, D42E, K44R, V58I, D71S, Y72H, ins 71_T_72, V79I, V96I, P101Q, K102R, D103E, L110A, V135I, L137R, K139D, V153I]mTNF-α(1–156) (natural protein)”, in [13], the stoichiometry N amounted to 3.
In test [14], “mTNFα mutant 17, [L1V, Q6R, N7T, S8P, H20P, V22A, E24G, E27Q, S30N, Q31R, M41V, D42E, K44R, A52S, D53E, V58I, V79I, F82I, I84V, E88T, V96I, Q130R, V135I, L137R, K139D, V153I]mTNF-α(1–156) (natural protein)” returned a stoichiometry N of 3.
Turning to “mTNFα mutant 9, [H20P, V22A, E24G, E27Q]mTNF-α(1–156) (natural protein)”, in test [15], the stoichiometry N turned out to be 3.
In the case of “mTNFα mutant 14, [H20P, V22A, E24G, E27Q, M41V, V58I, V79I, V96I, V135I, V153I]mTNF-α(1–156) (natural protein)”, the stoichiometry N in test [16] amounted to 3.
“mTNFα mutant 4, [D71S, Y72H, ins 71_T_72]mTNF-α(1–156) (natural protein)” had a stoichiometry N in [17] of 3.
For the substance “mTNFα mutant 18, [L1V, Q6R, N7T, S8P, H20P, V22A, E24G, E27Q, S30N, Q31R, M41V, V58I, V79I, V96I, V135I, V153I]mTNF-α(1–156) (natural protein)”, the stoichiometry N in test [18] was found to be 3.
Consider “mTNFα mutant 5, [P101Q, K102R, D103E, L110A]mTNF-α(1–156) (natural protein)”, for which the stoichiometry N in test [19] came to 3.
Regarding “mTNFα mutant 10, [H20P, V22A, E24G, E27Q, S30N, Q31R, L137R, K139D]mTNF-α(1–156) (natural protein)”, the stoichiometry N in [20] was determined as 3.

For the origin of these results see paper PMC3755337.
